# Experimental data taken from the domain aggregation screens of Martell et al. (2025).
# Test: soluble fraction after stress (log2 fold change); higher = more stays soluble; pooled small domains, quantitative proteomics
# Settings: stress: 75 degC
# 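Further: 20 min heating vs room temperature control held 20 min.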
row,Sequence,soluble fraction (log2)
1,HMEEDPVISQAQRQALFKLAHDHFGQEEGNKVILRLIGEHGLRSTTNMTASVYKTVTDALIQVIESMVEG,-0.45
2,HMEEEDELALFLREERKNYDLTLTDVHEKTGIPQKVLKEFQWGDAQLTDRQRYTLTQYVEEAREYFQENA,0.161
3,HMEEEVKVPKIKGLTEAEAKAKLKSEGLESGTARSAYSDTVEEGHIISQSIQEGTKVPKGTAVSYEVSKGK,0.149
4,HMEEGKVKRMAMDMVDAFYDKVSAMVDDNNDLGRSVVDAWDDEEENPPEYMLDDETRAILVNAGKIEPE,0.298
5,HMEEHSLRKQEMLRIIEALEQLTPKEKTVVVLYYFKGVLFKDIAMLLDVTEGRISQLHTAAMGRLKKLMD,-0.14
6,HMEEIDLTPAEEILNKLPDNSRGYLIPTLNKIQNAYRFLPDPAMELLMEFFNVSRAEIFGVISFYPQLMI,-0.127
7,HMEEIPYGVISAKAGAAAYDYIKKSIELGIEKKIDGVATAPIQKEAIHMAGISYIGHTEMYQGIT,0.178
8,HMEEKEIGQTLSVKIRENVLSKLDMTRDLEDEEVKHIIEHEIWLAAKKHYISLEERNSIKRGIFNSL,-0.895
9,HMEELELTIDGEMVGRIDKQLGHHFDQFSRSQIQHWIEDGHVLVNGKQVKPKYKLLVGDHVQIIPEEPQK,0.261
10,HMEELIIQEELANKRLDIAISLLFPELTRAHAQKLIKEGSVLVDGKPRKASYPLTAGKRLSVTLPEPE,-0.172
11,HMEELPVLHLKHVVVEGESLWKLAEQYLNDGTRWQEIYMLNRENISNPDLIREGQELNIQFLQGE,-0.382
12,HMEENIKKDIEVPNIEGLTIDEAKKRLKEVNLNISIEDMEEKEGTEIITQQLPKAGIKVKEGVAIIAY,0.227
13,HMEEPEFEPYVVRLTAIALNVRTGPGTQYPVAMVIRGGGAFTIVAEENGFGLLKSGAGWIMLQHTERV,-2.61
14,HMEEQELQLIQFPIASGSAWAGKAVRELILPPETLLVMLIRGTETMIPKGDTMVQEGDTAVLSASAYRDD,-0.472
15,HMEEQKYEYHLGDVVYLGVDKYEILGITNNIVTLYDPEFPLLNKQLDFDEFEKRVKDNYANEHLKVT,-0.324
16,HMEERDMKGSISDLVERYADQLTDEQLEEIVLGIKNGLLEEDVKSYFFLPAEDMRRIRTALEQVR,0.0219
17,HMEESEMIAFATVAHRIVGKPVEAVMRSYRNRDNIPADIAAIVSSKFTFSVTMAEASYRNPKKSYQVNSII,0.275
18,HMEETLLLRESVRSALAMLAPTLRITLEMYVYRQLSPTEIALRSGVSISMVRRRLGYGLYKLRTQLIDA,-0.121
19,HMEFEIGQEDSKKSVKQFLYNTLRLSHGQVTALKRQERGILLNGERVFVTALLQEGDRLSLLLE,-1.7
20,HMEFFIIDHNGQQAGPFSFDQLVQKGISPETLVWKQGMADWNPAWKVEELKAVLEAVEANQSNQKAQ,≥ 1.04
21,HMEFGEVLAQLRQKRHISQAELGRAIFVSGGTISNYEKGVHFPDVEKLLLLADYFNVTTDYLLGRT,-2.65
22,HMEFNQAVQDVNELSMQYAKSDVLWPEFEPKVLAFAKNELSQMPPNQWKFALQTFYNGLKQAA,-0.576
23,HMEFPLSPHQYSVLRLMAQGLSNKQIAERLFLSENTVKGYVQEVLRRLGARNRLEAVMIANRRGWL,-0.316
24,HMEFPYISGVDVGTISNKEFARFETTKASDIVIALDKSGIPFSARFGDSEIVLTYDGSYKEEVEEIIAKV,0.172
25,HMEFSYMDQGLERYRAFLETHGHGNVPESYHELKLVNFVAHIRKLYRMNLLSEERRRALDEAGFVF,-2.5
26,HMEFVEERRNRMLDYIGENKRADVPELARHFDVTEVTIRRDLLILEQDGKLIRTHGGAMINR,-0.536
27,HMEGDKEIPNVIGKSINDAKKILEQAGLKLGEVKKVNDSSVAKNVVLSTNPNAGTKVSAGDAVSITVAEG,0.106
28,HMEGGLIMDRIEKGLQSGVMPDLRGLNLKDALYLLESYVQVQVIGSGGVIKQSIKTGDKFIMGSVIKLEL,-0.138

row,Sequence,soluble fraction (log2)
1,HMEGLATRLRFLRQARGLSYHALARLSGVTHTALHQIEAGKNIPGLDTAEKIAMALDVDPRWFAYGRGDPS,-3.18
2,HMEGPALKVWKARYLRAAILEQLLSDRWDDRGGQPIRVVVNEPTNSLLIRIPRHLWPEAEKLLQELDQR,-2.34
3,HMEGTEILVNIRKGMTKEEIASLLVSKGLVEDKNTFLVQTALYTSDRYPIQPGSYTLNTAQTPEEMLAVMT,-0.0935
4,HMEGVNLTVQEAKQMAAIIAPLLKQGQSPYQIVTNHPELGISEKTLYNYIENDVFHEIAGITVMDL,-0.819
5,HMEHIVNELDRKVIDYLQSHYDAKLNDIAQGIGVSKATATKSIRKLVQTGIVHVVGSSGTGTSYNLTE,-0.465
6,HMEHVVFEVTESGELENNTAVKHVLNSFNNKSLNLAIDDFGTGYSNLRYIRDMMFGIIKIDRLFIKDINES,0.324
7,HMEIDFDKINSIFNDANKLYEEGDYFEANNLYKNIVSSNIISKDLYYNLGLSYAKIGSNGYAILWYERALN,-0.0259
8,HMEIEEIDYGTFLQMVEDGVVEKIELTDTQIFLTSTVDNDDKVYTTGVMPDQDLTNRLIEAGVVNFGKVV,0.134
9,HMEIFSIEPDSYLGSGEEIASYYREGVTVIVNMAKLSDAESLRMVDFMSGLKLALLGNIKRITKHVYLLTP,-0.0777
10,HMEIITIVSDINGKRIDAWLSEKLENYSRSFIQKLIQNENVKVNNNIVKANYKLKNGDAVAVSIPEPV,0.179
11,HMEILNYVVSDGQSGIRIDRYLSDSNEDLSRSYIQKLLKEQKVTVQGTFVKANYKVQAGDVITVEVPDMA,-0.884
12,HMEILPAYRDIKKEALLGNINAEFKYVNLLLEHNYIEQAFNIIEDMKTRVDDNPEFEELKSRVADAYLMY,-1.56
13,HMEILTLEELKRLMAKAKLKQNQISGHAGVSKQQISMILAGKRNITKDVSDNLKANLAEYFP,-0.651
14,HMEILVSTRRHEIASLLSRKKRVSFFELFPEKTKEYVVATFLAILEMAKAREVNITQEDTFDEIIVEEA,-2.18
15,HMEIPTPAELREKRIRMGLKQADVARMAGISQSMVARIESGSVDPRVSTLAKIVEVLQAAER,-0.488
16,HMEISLEAKMAEVREQVRGLAGINFRTLLEMQASRSNIIVTFLAILELMKIGAIQIRQEEIFGEIIIDSRD,-0.104
17,HMEISPGDVFKQLPGIGDDLSRRVVESLGIQSLEELESAAHDGRLEQVEGFGERRVQMVRAVLTGMLS,-0.00517
18,HMEITTEDIAAQVASWIVRLSEDLTSTDRAALQIEFEQWQQTDSRRAEIAHKMLSLIGQAEQLRKT,-0.712
19,HMEKAISSLTLEEAKKRLEMVRSEKDASLQIYKETGSETARVTAENYGKEENSLLLHISEMSNIV,0.425
20,HMEKFTGELSQEEKNVLDALSHEEMHVDIIIKLTKLETSAVSSTLSLLEIKGLIKNIGGQNYIK,0.543
21,HMEKIIFEISEEGKRLDLYIAERTELTRTRIQQLIKDGNINVNNKKSKPSYKVEKNDFIEMIIPDE,-1.23
22,HMEKINLIIEEDNNLRLDKVIAMQLQELSRTQIQDMINQGLVLVNQKKEKASYKTKLNDEIEITILD,-1.13
23,HMEKKDTYTVKNGDSLWGIARTELGDGGRFREIYTLNADTIEAEAKKRGRSSSSEGHWIYPGSVLRLP,0.304
24,HMEKKGTVVIATVKGDIHDIGKNIVKVLLENYGFDVIDLGKDVPPEAVVEAVQQSGARLVGLSALM,-0.898
25,HMEKKSKLVLAVLQGSDSDNTIRNLNERGFMVTVLSSTGGFLKKKSTTVMIGVEEDRLEEALDVLQKYAG,-0.549
26,HMEKKTILIPPVITVRALAEISQIPVNRLLQELIKNGVFTSINEKIDFDTAVIIGADLNLDIQLL,-1.86
27,HMEKLPRYILPGVPKVKSINISSALDGLVQDYSREFNISQKDIFQIALVEFFKKYGYHNAVKAVL,-2.29
